B1: SSAP_267: SEQ ID NO: 436; Clostridium combesii (protein, listed as Clostridium combesii)
chain: ANTKAIVLQETANNLNTLLKAKVKALPKGFNETRFLQNCMTVLQDTRNIEKCNSVSVARTMLKGAFLGLDFFSKECYAIPYNDYKTGKCHLEFQTDYKGERKLMKQYSVRPIKDIYAKVVREGDKFEEIIEKGIPTINFRPKPFSNEKIIGVFAVVLFEDGGLLYETMSVEDVEKIKVGFAKRDKEGNYSKAWTATPEEMYKKTVIRRLRKSVELEFDSVEQQKTYEEASEFDVKRDEEVKEEASPFENVDFEEAEEGNTIEAKQE
B2: SSAP_225: SEQ ID NO: 394; Actinocrispum wychmicini (protein, listed as Actinocrispum wychmicini)
chain: SQTVTAAVAQRDNGAQALIAKYRTDFAQVLPSHLRPTTFVRLSQGLLRRNVKLAEAAERNPASFLAALLECARLGHDPGTDQFALVPFNDRKRNTVEVVGIEQYQGVIERMYRAGAVRSVKAEVVRAADPFEYAPDVMDRPGHKPNWFADRGELIGVYAYAEFFDGSTSRVVMMNRETVMAHKAKSRGATSEDSPWQAWEESMWLKTAVHELEKWVPTSSEDRRAARDGTADPAPVEVPRVADEVLDADLVEDDHADHPTATPTGDVR
B3: SSAP_121: SEQ ID NO: 290; Bacillus sp. JAS24-2 (protein, listed as Bacillus sp.)
chain: ATNKDVKNQLANRKASAPVTTEQTVEAYMKKMGPKMAEVLPKHMDMDRMSRIALTTIRTNPKLLECSVPSLMGAVMSAVQLGLEPGLLGHCYILPYKSEATFIIGYKGMIDLARRSGHIQSIYAHAVYENDEFEYELGLHPQLKHKPSFGDRGEFIGAYAVAHFKDGGHQMEFMPKSEIEKRRGRSASANSNYSPWKTDYEEMAKKTVVRYMFKYLPISIEVQSQAQQDEVVRKDITEEPEFIEVEQQTEGDGQGDFVIEGE
B4: SSAP_133: SEQ ID NO: 302; Lacrimispora celerecrescens (protein, listed as Lacrimispora celerecrescens)
chain: SDVKQELEKRAAGGGSQSQSVKLTKNMTIVDMVKALEPEIKRALPSILTPERFTRMALSAINNTPKLGECTPMSFIAALMNAAQLGLEPNTPLGQAYLIPYKNKGVLECQFQLGYRGLIDLAYRNDRMQSIEAQVVYENDEFSYELGLHPSLTHRPSFDEPGEIRAFYAIFRLDNGGFRFEVMSKSYVDAYATKYSKAFTSDFSPWKNNYEGMAKKTVIKQLLKYAPIKSDFQKAITLDETVKTQLSIDMSEIRNECLPDTSENSEVA
B5: SSAP_21: SEQ ID NO: 190; Cellulosilyticum lentocellum (protein, listed as Cellulosilyticum lentocellum)
chain: SDKKELVLKETHSRLNQLLATKMEAMPKDFNQTRFLQNCMTVLQDTKGIENCHPVSIARTLLKGAFLGLDFFQRECYAIPYGGELQFQTDYKGETKMAKKYSIRDIKDIYAKVVRKGDEFKEEIVAGQQVVDFKPLPFNDAEIIGAFAVVLYQDGGMEYETMSTKQIEGIRDNFSKMKNGLMWTKTPEEAYKKTVLRRLTKKIEKDFASIDQAKAYEESSDMQFKQDEQKQDAKDPFADAVDVEFTEETEGQVRLDGEADGAK
B6: SSAP_1: SEQ ID NO: 172 (protein)
chain: ATNESLKNQLSTKKETGLGSAGNTIKGLMNSPAIKKRFEEVLKQRAPQYMSSIVNLVNSDINLKKCDQMSVVASCMVAATLDLPVDKNLGYAWVVPYGNKAQFQLGYKGYVQLALRTGQYKSINVIEIHEGELIDWNPLTEELKIDFSKKESDAVIGYAGYFELLNGFKKSTYWTKEQITKHKNKFSKSDFGWKKDFDAMARKTVLRNMLSKWGILSIEMQNAYTADQGIIKNEIIETGEVKENIEYIEADFESYEDNSIEEGGANE
B7: SSAP_108: SEQ ID NO: 277; Rummeliibacillus stabekisii (protein, listed as Rummeliibacillus stabekisii)
chain: ATTTELKEQMKQQAPAQTKKPKTIEDYMKQMAPAMAEALPKHMSVDRLTRLAMTTIRTTPALRQADVSSLLGAVMQAAQLGLEPGLLGQCYLLPFKNKKKAITEVQFIIGYKGMIDLARRSGHIQSIYSHAVFENDVFEYELGLEPKLKHTPTMSTDKGAFIGAYAVAHFKDGGHQFEFMSKADIEKRKGRSKAANSDYSPWLTDYEEMAKKTVIRHMWKYLPISVEMQEQVAYDEGVGRSIKDVTPEEDVFVQAPDEILEAEATEA
B8: SSAP_160: SEQ ID NO: 329; Veillonellaceae bacterium DNF00626 (protein)
chain: KTTGGLQQQQQQQAQALQNGGTTLKGYLQAMMPEIKKALPTVMTPERFTRIVMTTISTNPALQNCTPQSFLGAVMQAAQLGVEPNTPLGQAYLIPYGNQVQFQLGYKGLIDLAYRSGEVQSLQAHEVYQNDTFEYELGLNPKLKHIPALTNRGDVILYYAVIKFKNGGEGFEVMSKEDVEAFAKSKSKTYGRGPWQTDFDEMAKKTVLKKVLKYAPMKTDFIRAVATDETVKSSVAEQMADLPDETVTIDTEAQVVVDKETGEVKS
modifications: Veillonellaceae bacterium DNF00626
B9: SSAP_285: SEQ ID NO: 454; Chitinophaga lutea (protein, listed as Chitinophaga lutea)
chain: SNVNAPAAPVKSKIEVLKDIMNAPSVQEQFQNALRENSGVFVASVIDLFNSDTYLQNCEPKQVVMECLKAATLKLPINKNLGFAYVVPYKSNGKQIPQFQIGYKGYIQLAMRTGQYRIINADKVYEGEYRTKNKLTGEFDLSGTATSETVVGYFAHIEMLNGFAKTLYMTKEKVAAHAKKYSKSFGKETSPWHTEFDAMALKTVLRNLLSHYGYLSVEMMGAMNADIESDQVGSEVSQTINDKANKQEMTFDDAEVVDDDEKEQNPI
B10: SSAP_318: SEQ ID NO: 487; Shewanella morhuae (protein, listed as Shewanella morhuae)
chain: QTAQVKLSVPHQQVYQDNFNYLSSQVVGHLVDLNEEIGYLNQIVFNSLSTASPLDVAAPWSVYGLLLNVCRLGLSLNPEKKLAYVMPSWSETGEIIMKLYPGYRGEIAIASNFNVIKNANAVLVYENDHFRIQAATGEIEHFVTSLSIDPRVRGACSGGYCRSVLMDNTIQISYLSIEEMNAIAQNQIEANMGNTPWNSIWRTEMNRVALYRRAAKDWRQLIKATPEIQSALSDTEY
B11: SSAP_126: SEQ ID NO: 295; Marispirochaeta aestuarii (protein, listed as Marispirochaeta aestuarii)
chain: RTDGTKEAGAAATAPTEGKAPAKAHKPADTIGAMIEKLKPQIERALPKHVTPDRMARMALTAIRNNPKLGQAEAVSLMGSIIQASQLGLEPNTPLGQCYIIPYNSKNGMQAQFQMGYKGIVDLAHRSGQYRQLTAHPVDEADEFRYSYGLNPDLVHVPAEKPSGKITHYYAVYHLTNGGFDFRVWSREKVEAHAKQYSKSFSSGPWQTNFDQMACKTVMIDLLRYAPKSVEIAKATSADNRTHTINPEDPDLNIDTIDGDFELEGEER
B12: SSAP_298: SEQ ID NO: 467; Nocardia aurea (protein, listed as Nocardia aurea)
chain: SESISAAADAQKVTPRIVLDRHRDAFAQVLPPTINLDRWLRLAESAINASAGLLDIFRRDRGASALKALMKCAQLGHEPGSGLFHLVPKGQAIEGWEDYKGILQRILRSALYAKVVVAPVYANDEYAFDVNVDERPRHKQAAGDRGEPVRAYAYAVHRDGSTSTIAEATPAMIAGAKAKGHKTDASTSPWQNPRAPMHQKVAVRELERFVSTSAVDLRVTGDVTDLIIEEP
B13: SSAP_293: SEQ ID NO: 462; Brevibacillus porteri (protein)
chain: ADQNKLVVIYNNLEKLLDSKREAMPTSFNKTRFLQNCMTVLQETKDIELCNPTTVARTMLKGAFLGLDFFNKECYAVVYKGSVEFQTDYKGEVKLAKKYSTKPVREVYAKLVREGDEFAEEINSGNQTINFRPKPFNNEEILGAFAVVNYMDGTMAYDIMSKEEIEKIKENFSRKSKQTGEYSKAWVVTPGEMYKKTVLRRLCKNIDLDFDTIEQRQAFEDAGDVDFNQEVKPAQQSPLNSTVIEAEFEEVSEEQTNAAEQE
modifications: Brevibacillus porter
notes: Brevibacillus porteri

Experiments:
Assay type in all cases: cell-based
gene editing with Cas9 = assay: Screen of 322 new SSAP proteins, gene editing activity with Cas9 (Table 5); design: Cas9 with SSAP activity: scale not given here
Source text: (§1) 322 new SSAP proteins were identified from sequence data, synthesized, and screened for activity with Cas9 and dCas9. Gene editing activities are shown below in Table 5, followed by amino acid sequences of the proteins.

gene editing with dCas9 = assay: Screen of 322 new SSAP proteins, gene editing activity with dCas9 (Table 5); design: dCas9 with SSAP activity: scale not given here
Source text: as §1

[1] = test system: gene editing with Cas9 and dCas9; assay: Screen of 322 new SSAP proteins, activity across all experiments (Cas9 and dCas9, Table 5); design: scale not given here
Source text: as §1

| Molecule | Cas9 with SSAP activity (gene editing with Cas9) | Cas9 with SSAP activity (normalized) (gene editing with Cas9) | dCas9 with SSAP activity (gene editing with dCas9) | dCas9 with SSAP activity (normalized) (gene editing with dCas9) | Activity across all experiments [1] |
| --- | --- | --- | --- | --- | --- |
| B1 | −0.224 | −0.145 | −3.571 | −0.553 | −1.897 |
| B2 | −0.830 | −0.252 | −3.577 | −0.602 | −2.204 |
| B3 | −0.279 | −0.275 | 1.664 | 1.531 | 0.692 |
| B4 | −4.946 | −1.095 | −3.605 | −0.658 | −4.276 |
| B5 | −0.774 | −0.320 | −3.610 | −0.537 | −2.192 |
| B6 | −4.919 | −0.814 | −3.622 | −0.496 | −4.270 |
| B7 | 0.069 | 0.068 | −3.682 | −0.539 | −1.807 |
| B8 | 1.888 | 0.942 | −3.690 | −0.763 | −0.901 |
| B9 | −1.178 | −0.366 | −3.704 | −0.608 | −2.441 |
| B10 | 0.045 | 0.060 | −3.743 | −0.597 | −1.849 |
| B11 | −3.406 | −0.596 | −3.777 | −0.714 | −3.591 |
| B12 | 0.510 | 0.610 | −3.790 | −0.578 | −1.640 |
| B13 | −5.271 | −0.961 | −3.846 | −0.563 | −4.559 |

Reference: patent US20250034594A1, “RNA-GUIDED GENOME RECOMBINEERING AT KILOBASE SCALE” (THE BOARD OF TRUSTEES OF THE LELAND STANFORD JUNIOR …, priority 2021, published 2025)
